According to patent US20050191706A1:

How the values were obtained:
Lβ11H, Dβ57A = assay: flow; conditions: chains peptide; modification not given
Lβ26F = assay: flow; conditions: chains peptide; modification not given

Binder: PKYVKQNTLKLAT [bio-HA308-316]
- Kd (Lβ11H, Dβ57A): 8.56 µM
- Kd (Lβ26F): 3.72 µM
